These are literature values, as cited in paper PMC4258470.

Series [1] concerns the target p53 N-terminal transactivation domain (Homo sapiens) (UniProt P04637).
Series [2] deals with HPV16 E7 CR1-CR2 (Human papillomavirus type 16) (UniProt P03129).
Sequence of HPV16 E7 CR1-CR2 (Human papillomavirus type 16) (P03129 1-40): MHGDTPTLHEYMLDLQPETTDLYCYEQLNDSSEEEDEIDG

Sequence of p53 N-terminal transactivation domain (Homo sapiens) (P04637 1-61): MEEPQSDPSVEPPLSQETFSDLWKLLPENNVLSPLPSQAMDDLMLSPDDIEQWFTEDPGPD
Sequence of CBP TAZ2 (P45481 1766-1847): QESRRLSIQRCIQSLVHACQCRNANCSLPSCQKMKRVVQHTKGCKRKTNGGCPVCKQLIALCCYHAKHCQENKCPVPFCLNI
Sequence of pRb (P06400 2-928): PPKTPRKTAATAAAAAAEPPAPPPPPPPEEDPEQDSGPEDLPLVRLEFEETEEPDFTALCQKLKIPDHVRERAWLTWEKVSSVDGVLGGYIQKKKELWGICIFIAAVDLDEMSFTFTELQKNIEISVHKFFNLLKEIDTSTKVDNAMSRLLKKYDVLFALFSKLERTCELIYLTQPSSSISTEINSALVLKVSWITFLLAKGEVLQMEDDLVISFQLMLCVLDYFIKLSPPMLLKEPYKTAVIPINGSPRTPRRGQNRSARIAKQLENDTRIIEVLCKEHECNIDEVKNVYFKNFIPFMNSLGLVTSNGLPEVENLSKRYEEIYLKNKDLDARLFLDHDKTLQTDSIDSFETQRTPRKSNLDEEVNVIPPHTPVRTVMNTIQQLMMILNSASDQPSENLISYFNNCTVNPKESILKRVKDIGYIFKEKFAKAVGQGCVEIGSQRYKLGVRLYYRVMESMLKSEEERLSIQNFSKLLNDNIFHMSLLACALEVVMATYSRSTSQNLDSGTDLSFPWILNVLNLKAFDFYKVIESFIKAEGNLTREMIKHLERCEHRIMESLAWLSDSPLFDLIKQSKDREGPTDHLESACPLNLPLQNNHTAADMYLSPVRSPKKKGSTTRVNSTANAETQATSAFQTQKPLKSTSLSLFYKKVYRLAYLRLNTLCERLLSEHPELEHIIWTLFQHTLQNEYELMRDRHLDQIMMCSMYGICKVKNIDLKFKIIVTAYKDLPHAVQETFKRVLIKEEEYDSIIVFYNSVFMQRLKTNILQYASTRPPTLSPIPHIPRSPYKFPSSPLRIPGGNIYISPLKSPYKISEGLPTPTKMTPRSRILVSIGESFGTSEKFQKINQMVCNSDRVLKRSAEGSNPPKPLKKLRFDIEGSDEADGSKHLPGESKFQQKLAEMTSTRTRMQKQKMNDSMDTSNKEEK

On to CBP TAZ2 (from UniProt P45481), for which, in series [1], the Kd was 20 nM.
Take pRb (from UniProt P06400): in series [2], the Kd is 2 nM.

As a reminder, the Kd is the concentration at which binding is half-saturated.
